The target in assay [1] is T1, Recombinant Human DLL4 (R&D Systems Cat#1506-D4/CF) (human, UniProt Q9NR61 27-524).
T1 construct: Bought recombinant protein; also called delta-like protein 4; rHuman DLL4
In words: MSD ECL multispot assay, antigen spotted on plate, Fab in solution; blank spot of this row 504.

The target in assay [2] is T2, rHuman CD44/Fc Chimera, CF (R&D Systems Cat#3660-CD) (human, UniProt P16070 21-220).
T2 construct: Bought recombinant protein; not shown: Fc of the bought chimera
Described as above.

The target in assay [3] is T3, rHuman IGF-1 sR (insulin-like growth factor-1 soluble receptor), CF (R&D Systems Cat#391-GR) (human, UniProt P08069 31-932).
T3 construct: Bought recombinant soluble receptor
The description is as above.

Assay [4] has as its target T4, rHuman EGF R/Fc Chimera, CF (R&D Systems Cat#344-ER) (human, UniProt P00533 25-645).
T4 construct: Bought recombinant protein; not shown: Fc of the bought chimera
Described as above.

Assay [5] addresses T5, rHuman HGF R/c-MET/Fc Chimera, CF (R&D Systems Cat#358-MT/CF) (human, UniProt P08581 25-932).
T5 construct: Bought recombinant protein; also called HGF R/Fc; not shown: Fc of the bought chimera
The description is as above.

The target of assay [6] is T6, rHuman Erythropoietin R/Fc Chimera, CF (R&D Systems Cat#963-ER) (human, UniProt P19235 25-250).
T6 construct: Bought recombinant protein; also called EPO R; EPO R/Fc; not shown: Fc of the bought chimera
T6 sequence (looked up): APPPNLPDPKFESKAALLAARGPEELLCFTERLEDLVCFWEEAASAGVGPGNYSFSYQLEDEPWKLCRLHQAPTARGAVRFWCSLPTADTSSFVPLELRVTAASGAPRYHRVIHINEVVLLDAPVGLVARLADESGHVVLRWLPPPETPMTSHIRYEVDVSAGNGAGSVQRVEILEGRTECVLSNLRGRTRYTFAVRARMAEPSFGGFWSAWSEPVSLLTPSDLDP
Described as above.

The target in assay [7] is T7, rHuman Notch-1/Fc Chimera, CF (R&D Systems Cat#3647-TK) (human, UniProt P46531 19-526).
T7 construct: Bought recombinant protein; not shown: Fc of the bought chimera
The assay is described as above.

Assay [8] deals with T8, rHuman ErbB2/Fc Chimera, CF (R&D Systems Cat#1129-ER) (human, UniProt P04626 23-652).
T8 construct: Bought recombinant protein; not shown: Fc of the bought chimera
Described as above.

Assay [9] deals with T1, Recombinant Human DLL4 (R&D Systems …). In words: MSD ECL multispot assay, antigen spotted on plate, Fab in solution; blank spot of this row 348.
Assay [10] deals with T2, rHuman CD44/Fc Chimera, CF (R&D Systems …). Described as above.
For assay [11], the target named is T3, rHuman IGF-1 sR (insulin-like growth …). Described as above.
The target of assay [12] is T4, rHuman EGF R/Fc Chimera, CF (R&D …). The description is as above.
For assay [13], the target named is T5, rHuman HGF R/c-MET/Fc Chimera, CF (R&D …). The assay is described as above.
For assay [14], the target named is T6, rHuman Erythropoietin R/Fc Chimera, CF …. The assay is described as above.
The target in assay [15] is T7, rHuman Notch-1/Fc Chimera, CF (R&D …). The assay is described as above.
Assay [16] has as its target T8, rHuman ErbB2/Fc Chimera, CF (R&D …). Described as above.
Assay [17] addresses T1, Recombinant Human DLL4 (R&D Systems …). Put plainly: MSD ECL multispot assay, antigen spotted on plate, Fab in solution; blank spot of this row 278.
Assay [18] concerns the target T2, rHuman CD44/Fc Chimera, CF (R&D Systems …). The assay is described as above.
For assay [19], the target named is T3, rHuman IGF-1 sR (insulin-like growth …). The description is as above.
Assay [20] addresses T4, rHuman EGF R/Fc Chimera, CF (R&D …). The assay is described as above.
The target of assay [21] is T5, rHuman HGF R/c-MET/Fc Chimera, CF (R&D …). Described as above.
Assay [22] addresses T9, rHuman P-Cadherin/Fc Chimera, CF (R&D Systems Cat#861-PC) (human, UniProt P22223 108-654).
T9 construct: Bought recombinant protein; not shown: Fc of the bought chimera
The assay is described as above.

Assay [23] has as its target T6, rHuman Erythropoietin R/Fc Chimera, CF …. The assay is described as above.
Assay [24] deals with T7, rHuman Notch-1/Fc Chimera, CF (R&D …). Described as above.
Assay [25] concerns the target T8, rHuman ErbB2/Fc Chimera, CF (R&D …). The description is as above.
Assay [26] addresses T10, rHuman EGF R/Fc Chimera, CF (R&D Systems Cat#344-ER) (human, UniProt P00533 25-645).
T10 construct: Bought recombinant Fc chimera; also called epidermal growth factor receptor; Fc part of the bought chimera not given
In words: ECL Multispot (MSD) binding assay, antigen spotted on plate, Fab in solution.

The target of assay [27] is T11, rHuman Notch-1/Fc Chimera, CF (R&D Systems Cat#3647-TK) (human, UniProt P46531 19-526).
T11 construct: Bought recombinant Fc chimera; Fc part of the bought chimera not given
The description is as above.

The target in assay [28] is T12, Recombinant Human DLL4 (R&D Systems Cat#1506-D4/CF) (human, UniProt Q9NR61 27-524).
T12 construct: Bought recombinant human DLL4; also called delta-like protein 4; Delta-like 4
The description is as above.

The target in assay [29] is T13, rHuman IGF-1 sR, CF (R&D Systems Cat#391-GR) (human, UniProt P08069 31-932).
T13 construct: Bought recombinant soluble receptor; also called insulin-like growth factor-1 soluble receptor
Described as above.

In assay [30] the target is T14, rHuman HGF R/c-MET/Fc Chimera, CF (R&D Systems Cat#358-MT/CF) (human, UniProt P08581 25-932).
T14 construct: Bought recombinant Fc chimera; also called HGF R/Fc; hepatocyte growth factor receptor; Fc part of the bought chimera not given
The description is as above.

Assay [31] has as its target T15, rHuman Erythropoietin R/Fc Chimera, CF (R&D Systems Cat#963-ER) (human, UniProt P19235 25-250).
T15 construct: Bought recombinant Fc chimera; also called EPO R; EPO R/Fc; Fc part of the bought chimera not given
T15 sequence (looked up): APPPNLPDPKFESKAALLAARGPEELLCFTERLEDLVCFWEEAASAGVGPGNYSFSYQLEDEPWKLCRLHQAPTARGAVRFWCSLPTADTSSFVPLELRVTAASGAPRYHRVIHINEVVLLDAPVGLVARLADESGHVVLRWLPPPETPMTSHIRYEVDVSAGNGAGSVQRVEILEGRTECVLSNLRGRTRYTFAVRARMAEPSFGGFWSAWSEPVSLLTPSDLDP
The assay is described as above.

For assay [32], the target named is T16, rHuman P-Cadherin/Fc Chimera, CF (R&D Systems Cat#861-PC) (human, UniProt P22223 108-654).
T16 construct: Bought recombinant Fc chimera; Fc part of the bought chimera not given
Described as above.

The target in assay [33] is T17, rHuman ErbB2/Fc Chimera, CF (R&D Systems Cat#1129-ER) (human, UniProt P04626 23-652).
T17 construct: Bought recombinant Fc chimera; also called human epidermal growth factor 2 receptor; Fc part of the bought chimera not given
Described as above.

In assay [34] the target is T18, rHuman CD44/Fc Chimera, CF (R&D Systems Cat#3660-CD) (human, UniProt P16070 21-220).
T18 construct: Bought recombinant Fc chimera; Fc part of the bought chimera not given
The assay is described as above.

Data on three molecules can be found in patent US20120316071A1 (published 2012).

B1: Fab VH1-46_IGHD6-6*01_IGHJ1*01 S102A/S103P/S104F/H111F (APFF) & L6_IGKJ1*01 S92C (Fab, V domains shown)
VH: QVQLVQSGAEVKKPGASVKVSCKASGYTFTSYYMHWVRQAPGQGLEWMGIINPSGGSTSYAQKFQGRVTMTRDTSTSTVYMELSSLRSEDTAVYYCAREEYAPFSAEYFQFWGQGTLVTVSS
VL: EIVLTQSPATLSLSPGERATLSCRASQSVSSYLAWYQQKPGQAPRLLIYDASNRATGIPARFSGSGSGTDFTLTISSLEPEDFAVYYCQQRCNWPPWTFGQGTKVEIKR
notes: Fab; also called APFF / S92C
For B1, the ECL signal was 1260 in assay [1]; 646 in [2]; 666 in assay [3]; 638 in assay [4]; 616 in assay [5]; 845 in assay [6]. In addition, the ECL signal came to 611 in [7]; 573 in assay [8]; 1340 in [9]; 458 in assay [10]; 471 in assay [11]; 452 in assay [12]. Besides, the ECL signal is 472 in assay [13], 601 in assay [14], 439 in assay [15] and 425 in [16].

B2: Fab VH1-46_IGHD6-6*01_IGHJ1*01 S102A/S103P/S104F/H111F (APFF) & L6_IGKJ1*01 S92T (Fab, V domains shown)
VH: QVQLVQSGAEVKKPGASVKVSCKASGYTFTSYYMHWVRQAPGQGLEWMGIINPSGGSTSYAQKFQGRVTMTRDTSTSTVYMELSSLRSEDTAVYYCAREEYAPFSAEYFQFWGQGTLVTVSS
VL: EIVLTQSPATLSLSPGERATLSCRASQSVSSYLAWYQQKPGQAPRLLIYDASNRATGIPARFSGSGSGTDFTLTISSLEPEDFAVYYCQQRTNWPPWTFGQGTKVEIKR
notes: Fab; also called APFF / S92T
For B2, the ECL signal in assay [17] worked out at 54100; in assay [18] it was 290; in assay [19] it was 308; in assay [20], 295; in assay [21], 290; in assay [22] it was 387. The results for the ECL signal in assay [23], in [24] and in [25] were 424, 231 and 237, respectively.

B3: Fab VH1-46_IGHD6-6*01_IGHJ1*01 S102A/S103P/S104F/H111F (APFF) & L6_IGKJ1*01 S92G (Fab, V domains shown)
VH: QVQLVQSGAEVKKPGASVKVSCKASGYTFTSYYMHWVRQAPGQGLEWMGIINPSGGSTSYAQKFQGRVTMTRDTSTSTVYMELSSLRSEDTAVYYCAREEYAPFSAEYFQFWGQGTLVTVSS
VL: EIVLTQSPATLSLSPGERATLSCRASQSVSSYLAWYQQKPGQAPRLLIYDASNRATGIPARFSGSGSGTDFTLTISSLEPEDFAVYYCQQRGNWPPWTFGQGTKVEIKR
notes: Tested as a Fab made in E. coli; also called APFF / S92G; H:APFF & L6_IGKJ1*01 S92G
Turning to B3, the ECL signal in [26] came to 420; in [27], 541; in [28], 91400; in assay [29], 323; in [30], 287; in [31], 543. Further, the ECL signal in assay [32] turned out to be 402; in assay [33] it was 377; in [34] it was 413.
